Assay results reported in patent US20220143148A1, “COMPOSITIONS AND METHODS FOR MODULATING CGRP SIGNALING TO REGULATE INTESTINAL INNATE LYMPHOID CELLS” (The Broad Institute, Inc., priority 2019, published 2022).

Test system: small intestinal immune cells
Test: Droplet-based scRNA-seq of small intestinal immune cells (LP and PP), OVA vs PBS, clustering and differential expression
Type: in vivo, mouse
Details: PP, cluster ID 8
Source text: To comprehensively characterize small intestinal immune cells, Applicants generated scRNA-Seq profiles for 58,067 immune cells collected from lamina propria (LP) and Peyer's patch (PP) regions at steady state and after induction of a type 2 inflammatory reaction to ovalbumin (OVA) (Brandt et al., 2003) (FIGS. 1A and 8A). To ensure sufficient representation of rare cells, Applicants combined a normalization strategy—removing by flow sorting either a portion of IgD+ naïve B cells, which are the most abundant cell type in PPs, or all CD19+ and CD3+ T cells (FIG. 8B, Methods)—with profiling of a sufficiently large number of cells number (P>0.99 to recover at least 15 cells from each cluster, Methods) by massively parallel scRNA-seq (Haber et al., 2017) (Methods). Applicants obtained 36,797 and 21,270 high quality cells passing initial filtering (Methods) from PP and LP regions, respectively.
Overall, Applicants annotated 27 cell subsets across the two compartments, spanning T cells, B cells, ILCs, dendritic cells (DCs), myeloid cells and stromal cells, in frequencies ranging from 0.07% to 14%. Briefly, Applicants first partitioned the cells from the PP regions by unsupervised clustering (Methods) into 46 clusters, retained the 97% of cells that were robustly assigned cell identities in each cluster (Methods), assigned the cells from the LP regions to the 46 clusters using a classifier (Methods), and visualized the data with scvis (Ding et al., 2018), a deep generative model-based method (FIGS. 1B and 8C, Methods). Next, Applicants identified genes that were differentially expressed between the cells in each cluster and the remaining cells (Table 1, Methods), as well as between pairs of clusters (Table 2), to elucidate identities of similar cell types/states. Applicants excluded from downstream analysis clusters mostly consisting of contaminants from epithelium, likely doublets, or cells with a small number of Unique Molecular Identifiers (UMIs) (FIGS. 1C and 8D), or lacking distinct markers (Methods). Altogether, Applicants retained 27 clusters spanning 85% of the cells and each associated with distinct marker genes (FIG. 8E, Methods).
To induce allergic reaction to OVA, 6 to 7 weeks old mice were sensitized twice, two weeks apart, with 50 μg of OVA plus 1 mg of aluminum potassium sulfate adjuvant via intraperitoneal injection. Two weeks later, mice were orally administered with 50 mg of OVA on every other day for a total of five times. 1 μg of α-CGRP peptide was administered simultaneously when indicated. Mice were deprived of food for 3-4 hours in cages with wood chip bedding for limiting antigen degradation in the stomach before each intragastric challenge.
Isolation of cells from Peyer's patches (PPs). Peyer's patches (PPs) were carefully dissected from the small intestine under a stereo microscope using a fine scissor, pierced once with a fine forcep. Tissues were digested in freshly made digestion buffer (RPMI-1640 containing 100 μg/ml Liberase™ and 50 μg/ml DNase I at 37° C. on a roto-mixer. After 15 min, tissues were very gently mixed using a 1 ml pipette. The supernatant was collected and added to ice-cold MACS buffer (pH 7.4; PBS plus 2% FCS and 2 mM EDTA). Pre-warmed (37° C.) fresh digestion buffer was added to the remaining tissues. After rotation at 37° C. for 15 min, the mixture was vigorously mixed using a 1 ml pipette for 1 min. Supernatants from the two steps were combined and passed through 70 μm filters and stained for FACS (below).
Isolation of cells from the lamina propria (LP). The small intestines were opened longitudinally and washed in ice-cold PBS. For scRNA-seq, roughly 0.5 cm of fragments from each of the distal, middle and proximal regions without visible PPs were collected. Epithelial cells were dissociated by tissue rotation in pre-warmed (37° C.) PBS containing 10 mM EDTA at 37° C. for 15 min, followed by additional incubation on ice for 15 min. Tissues were then shaken vigorously. […]

B1: OVA (protein, UniProt P01012 2-386, looked up)
Ovalbumin: GSIGAASMEFCFDVFKELKVHHANENIFYCPIAIMSALAMVYLGAKDSTRTQINKVVRFDKLPGFGDSIEAQCGTSVNVHSSLRDILNQITKPNDVYSFSLASRLYAEERYPILPEYLQCVKELYRGGLEPINFQTAADQARELINSWVESQTNGIIRNVLQPSSVDSQTAMVLVNAIVFKGLWEKAFKDEDTQAMPFRVTEQESKPVQMMYQIGLFRVASMASEKMKILELPFASGTMSMLVLLPDEVSGLEQLESIINFEKLTEWTSSNVMEERKIKVYLPRMKMEEKYNLTSVLMAMGITDVFSSSANLSGISSAESLKISQAVHAAHAEINEAGREVVGSAEAGVDAASVSEEFRADHPFLFCIKHIATNAVLFFGRCVSP
In the case of B1, the “Rab35 percentage of expressing cells in OVA-treated group” value is reported as 0.207, the “Rac2 percentage of expressing cells in OVA-treated group” value is reported as 0.97 and the “Rel percentage of expressing cells in OVA-treated group” value is reported as 0.139. For the same molecule, the “Rgs1 percentage of expressing cells in OVA-treated group” value was 0.699, the “Rnf125 percentage of expressing cells in OVA-treated group” value was 0.167 and the “Rnf157 percentage of expressing cells in OVA-treated group” value was 0.188. For the same molecule, the “Rora percentage of expressing cells in OVA-treated group” value was 0.161, the “Rrad percentage of expressing cells in OVA-treated group” value was 0.191 and the “Rsrp1 percentage of expressing cells in OVA-treated group” value was 0.559. The “Samd9l percentage of expressing cells in OVA-treated group” value was 0.176, the “Samsn1 percentage of expressing cells in OVA-treated group” value was 0.324 and the “Sh2d1a percentage of expressing cells in OVA-treated group” value was 0.488. For the same molecule, the “Sik1 percentage of expressing cells in OVA-treated group” value was 0.161, the “Skil percentage of expressing cells in OVA-treated group” value was 0.207 and the “Sla percentage of expressing cells in OVA-treated group” value was 0.335. For the same molecule, the “Slfn2 percentage of expressing cells in OVA-treated group” value was 0.408, the “Sp100 percentage of expressing cells in OVA-treated group” value was 0.537 and the “Taf10 percentage of expressing cells in OVA-treated group” value was 0.347. For the same molecule, the “Tfam percentage of expressing cells in OVA-treated group” value was 0.19, the “Tgif1 percentage of expressing cells in OVA-treated group” value was 0.305 and the “Tm6sf1 percentage of expressing cells in OVA-treated group” value was 0.454. For the same molecule, the “Traf1 percentage of expressing cells in OVA-treated group” value was 0.464, the “Tsc22d3 percentage of expressing cells in OVA-treated group” value was 0.664 and the “Tuba4a percentage of expressing cells in OVA-treated group” value was 0.191. For the same molecule, the “Txndc5 percentage of expressing cells in OVA-treated group” value was 0.239, the “Txnip percentage of expressing cells in OVA-treated group” value was 0.398 and the “Ube2s percentage of expressing cells in OVA-treated group” value was 0.478. The “VgIl4 percentage of expressing cells in OVA-treated group” value was 0.47, the “Vps37b percentage of expressing cells in OVA-treated group” value was 0.79 and the “Zc3h12a percentage of expressing cells in OVA-treated group” value was 0.182. The “Zfp36l2 percentage of expressing cells in OVA-treated group” value was 0.84, the “Zfp512 percentage of expressing cells in OVA-treated group” value was 0.446 and the “AW112010 LN (average fold change)” value (OVA vs PBS) was 0.208. The “AY036118 LN (average fold change)” value (OVA vs PBS) was −0.339, the “Actr3 LN (average fold change)” value (OVA vs PBS) was 0.315 and the “Alyref LN (average fold change)” value (OVA vs PBS) was −0.597. The “Amd1 LN (average fold change)” value (OVA vs PBS) was −0.426, the “Arf4 LN (average fold change)” value (OVA vs PBS) was −0.186 and the “Arfrp1 LN (average fold change)” value (OVA vs PBS) was 0.609. For the same molecule, the “Arl6ip1 LN (average fold change)” value (OVA vs PBS) was 0.367, the “Arl6ip5 LN (average fold change)” value (OVA vs PBS) was 0.344 and the “Arpc5l LN (average fold change)” value (OVA vs PBS) was 0.383. For the same molecule, the “Arrb2 LN (average fold change)” value (OVA vs PBS) was 0.295, the “Ash1l LN (average fold change)” value (OVA vs PBS) was 0.491 and the “B2m LN (average fold change)” value (OVA vs PBS) was 0.159. The “Bcl2 LN (average fold change)” value (OVA vs PBS) was 0.286, the “Bcl2a1b LN (average fold change)” value (OVA vs PBS) was −0.507 and the “Bcl2l11 LN (average fold change)” value (OVA vs PBS) was −0.208. For the same molecule, the “Bhlhe40 LN (average fold change)” value (OVA vs PBS) was −0.159, the “Cap1 LN (average fold change)” value (OVA vs PBS) was 0.235 and the “Ccr2 LN (average fold change)” value (OVA vs PBS) was 0.330. For the same molecule, the “Cd47 LN (average fold change)” value (OVA vs PBS) was 0.262, the “Cd69 LN (average fold change)” value (OVA vs PBS) was −0.386 and the “Cd74 LN (average fold change)” value (OVA vs PBS) was −0.187. For the same molecule, the “Cdk2ap1 LN (average fold change)” value (OVA vs PBS) was −0.673, the “Cdkn1a LN (average fold change)” value (OVA vs PBS) was −0.980 and the “Cdv3 LN (average fold change)” value (OVA vs PBS) was −0.281. The “Cks2 LN (average fold change)” value (OVA vs PBS) was −0.601, the “Clec2d LN (average fold change)” value (OVA vs PBS) was 0.391 and the “Coq10b LN (average fold change)” value (OVA vs PBS) was −0.426. The “Crem LN (average fold change)” value (OVA vs PBS) was −0.681, the “Csrp1 LN (average fold change)” value (OVA vs PBS) was −0.437 and the “Ctla2a LN (average fold change)” value (OVA vs PBS) was 0.372. The “Cxcr4 LN (average fold change)” value (OVA vs PBS) was 0.544, the “Ddx21 LN (average fold change)” value (OVA vs PBS) was −0.379 and the “Defa24 LN (average fold change)” value (OVA vs PBS) was −0.967. For the same molecule, the “Dgat1 LN (average fold change)” value (OVA vs PBS) was −0.352, the “Dusp1 LN (average fold change)” value (OVA vs PBS) was −0.244 and the “Eef2 LN (average fold change)” value (OVA vs PBS) was 0.257. For the same molecule, the “Egr1 LN (average fold change)” value (OVA vs PBS) was −0.640, the “Eif4a2 LN (average fold change)” value (OVA vs PBS) was 0.300 and the “Emb LN (average fold change)” value (OVA vs PBS) was −0.223. For the same molecule, the “Fam105a LN (average fold change)” value (OVA vs PBS) was 0.376, the “Fasl LN (average fold change)” value (OVA vs PBS) was 0.296 and the “Fcer1g LN (average fold change)” value (OVA vs PBS) was 0.170.
